Reference: patent US20030203464

B1: Type I Rac-GEF (protein)
chain: MEYMPMEIRHDLEILQPEEIKLQEAMFELVTSEASYYKSLNLLVSHFMENERIRKILHPSEAHILFSNVLDVLAVSERFLLELEHRMEENIVISDVCDIVYRYAADHFSVYITYVSNQTYQERTYKQLLQEKAAFRELIAQLELDPKCRGLPFSSFLILPFQRITRLKLLVQNILKRVEERSERECTALDAHKELEMVVKACNEGVRKMSRTEQMISIQKKMEFKIKSVPIISHSRWLLKQGELQQMSGPKTSRTLRTKKLFHEIYLFLFNDLLVICRQIPGDKYQVFDSAPRGLLRVEELEDQGQTLANVFILRLLENADDREATYMLKASSQSEMKRWMTSLAPNRRTKFVSFTSRLLDCPQVQCVHPYVAQQPDELTLELADILNILDKTDDGWIFGERLHDQERGWFPSSMTEEILNPKIRSQNLKECFRVHKMDDPQRSQNKDRRKLGSRNRQ
B2: Type II Rac-GEF (protein)
chain: B1 chain

Cdc42, P60953, sequence (P60953 whole entry, looked up): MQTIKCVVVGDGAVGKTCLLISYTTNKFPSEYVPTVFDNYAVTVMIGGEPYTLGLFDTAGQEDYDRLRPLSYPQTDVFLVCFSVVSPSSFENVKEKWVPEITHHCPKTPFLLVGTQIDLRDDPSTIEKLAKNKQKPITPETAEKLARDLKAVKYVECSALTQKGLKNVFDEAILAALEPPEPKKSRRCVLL
RhoA, P61586, sequence (P61586 whole entry): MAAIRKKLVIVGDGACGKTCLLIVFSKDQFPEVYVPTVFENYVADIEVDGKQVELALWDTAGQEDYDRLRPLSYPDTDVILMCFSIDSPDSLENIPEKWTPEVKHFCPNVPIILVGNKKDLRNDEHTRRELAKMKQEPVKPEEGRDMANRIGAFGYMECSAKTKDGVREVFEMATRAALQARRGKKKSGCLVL

| Protein | exchange activity on Rac1, RhoA and Cdc42 (Rac1, P63000) | exchange activity on Rac1, RhoA and Cdc42 (RhoA, P61586) | exchange activity on Rac1, RhoA and Cdc42 (Cdc42, P60953) |
| --- | --- | --- | --- |
| B1 | Rac GEF is primarily selective for Rac1 | but also displays activity against both RhoA and Cdc42 | but also displays activity against both RhoA and Cdc42 |
| B2 | Rac GEF is primarily selective for Rac1 | but also displays activity against both RhoA and Cdc42 | but also displays activity against both RhoA and Cdc42 |
